According to patent publication US20190016826A1 (Genentech, published 2019):
Changes are numbered by the printed parent chain. Blank lines part the entries; values can stand above or below the binder they belong to.

Experiments:
[1] = molecular target: T1, HuHtrA1_PD(V201A) (human, UniProt F1N152 168-386 (bovine entry)); test: binding ELISA, plate coated with mutant at 1 ug/ml, 20 min incubation
T1 construct: Alanine mutant of HuHtrA1_PD; also called HuHtrA1 mutant V201A; not shown: thrombin cleavage site
T1 chain: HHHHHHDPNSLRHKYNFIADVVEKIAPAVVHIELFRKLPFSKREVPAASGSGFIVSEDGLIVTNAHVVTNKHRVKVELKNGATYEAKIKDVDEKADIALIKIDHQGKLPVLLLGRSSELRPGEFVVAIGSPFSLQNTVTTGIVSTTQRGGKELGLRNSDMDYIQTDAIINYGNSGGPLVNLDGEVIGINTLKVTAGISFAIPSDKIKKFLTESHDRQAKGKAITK

[2] = molecular target: T2, HuHtrA1_PD(K225A) (human, UniProt F1N152 168-386 (bovine entry)); test: as above
T2 construct: Alanine mutant of HuHtrA1_PD; also called HuHtrA1 mutant K225A; not shown: thrombin cleavage site
T2 chain: T1 chain with A47V, K71A

[3] = molecular target: T3, HuHtrA1_PD(T223A) (human, UniProt F1N152 168-386 (bovine entry)); test: as above
T3 construct: Alanine mutant of HuHtrA1_PD; also called HuHtrA1 mutant T223A; not shown: thrombin cleavage site
T3 chain: T1 chain with A47V, T69A

[4] = molecular target: T4, HuHtrA1_PD(K243A) (human, UniProt F1N152 168-386 (bovine entry)); test: as above
T4 construct: Alanine mutant of HuHtrA1_PD; also called HuHtrA1 mutant K243A; not shown: thrombin cleavage site
T4 chain: T1 chain with A47V, K89A

[5] = molecular target: T5, HuHtrA1_PD(H220A) (human, UniProt F1N152 168-386 (bovine entry)); test: as above
T5 construct: Alanine mutant of HuHtrA1_PD; also called HuHtrA1 mutant H220A; not shown: thrombin cleavage site
T5 chain: T1 chain with A47V, H66A

[6] = molecular target: T6, HuHtrA1_PD(E247A) (human, UniProt F1N152 168-386 (bovine entry)); test: as above
T6 construct: Alanine mutant of HuHtrA1_PD; also called HuHtrA1 mutant E247A; not shown: thrombin cleavage site
T6 chain: T1 chain with A47V, E93A

[7] = molecular target: T7, Full length human HtrA1 (HuHtrA1) (Q23-P480), N-terminal His6 tag (human, UniProt Q92743 23-480); test: cell-based or functional assay
T7 sequence (Q92743 other isoform, or with tags, fused parts or gaps): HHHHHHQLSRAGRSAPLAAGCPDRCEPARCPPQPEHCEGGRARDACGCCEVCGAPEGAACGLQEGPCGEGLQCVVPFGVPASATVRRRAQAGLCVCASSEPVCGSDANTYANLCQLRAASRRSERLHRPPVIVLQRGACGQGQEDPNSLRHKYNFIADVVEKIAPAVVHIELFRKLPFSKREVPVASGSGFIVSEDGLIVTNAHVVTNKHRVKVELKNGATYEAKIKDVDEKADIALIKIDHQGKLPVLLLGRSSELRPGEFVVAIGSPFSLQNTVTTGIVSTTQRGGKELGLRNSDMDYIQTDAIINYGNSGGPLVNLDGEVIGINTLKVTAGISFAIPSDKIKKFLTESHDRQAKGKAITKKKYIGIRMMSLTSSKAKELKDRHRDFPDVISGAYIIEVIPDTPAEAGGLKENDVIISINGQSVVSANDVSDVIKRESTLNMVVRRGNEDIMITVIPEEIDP

[8] = molecular target: T8, Full length murine HtrA1 (MuHtrA1) (P24-P480), N-terminal His6 tag (murine, UniProt Q9R118 24-480); test: cell-based or functional assay
T8 sequence (Q9R118 other isoform, or with tags, fused parts or gaps): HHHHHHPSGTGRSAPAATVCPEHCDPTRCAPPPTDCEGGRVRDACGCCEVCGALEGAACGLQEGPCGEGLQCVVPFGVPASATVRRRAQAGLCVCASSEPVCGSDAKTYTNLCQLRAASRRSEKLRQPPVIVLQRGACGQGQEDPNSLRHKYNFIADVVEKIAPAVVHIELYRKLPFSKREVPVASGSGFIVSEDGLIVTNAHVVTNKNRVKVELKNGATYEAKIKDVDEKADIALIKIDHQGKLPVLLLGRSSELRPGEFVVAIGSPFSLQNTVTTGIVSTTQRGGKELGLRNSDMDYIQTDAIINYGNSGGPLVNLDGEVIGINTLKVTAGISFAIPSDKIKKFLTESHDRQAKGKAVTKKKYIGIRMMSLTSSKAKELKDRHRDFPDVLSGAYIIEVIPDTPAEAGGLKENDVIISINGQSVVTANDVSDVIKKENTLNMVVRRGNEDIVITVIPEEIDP

[9] = molecular target: T8, Full length murine HtrA1 (MuHtrA1) …; test: SPR (BIAcore T100), single-cycle kinetics, biotinylated murine HtrA1 captured on streptavidin, Fab in solution
Text: (§1) To determine the binding affinity of HtrA1 antibodies by single cycle kinetics, Surface Plasmon Resonance (SRP) measurement with a BIAcore™ T100 instrument was used. Briefly, a series S sensor chip CM5 was activated with EDC and NHS reagents according to the supplier's instructions, and streptavidin (Pierce) was coupled to achieve approximately 2000 response units (RU), followed by blocking un-reacted groups with 1M ethanolamine.
(§2) For kinetics measurements, biotinylated human or murine HtrA1 was first injected at 10 ul/min flow rate to capture approximately 100 RU at 3 different flow cells (FC), except for FC1 (reference), and then 5-fold serial dilutions of anti-HtrA1 Fab in HBS-P buffer (0.01M HEPES pH 7.4, 0.15M NaCl, 0.005% surfactant P20) from low (0.48 nM) to high (300 nM) [5 points] were injected (flow rate: 30 μl/min) one after the other in the same cycle with no regeneration between injections. The sensorgram was recorded and subject to reference and buffer subtraction before evaluation by BIAcore™ T100 Evaluation Software (version 2.0). Association rates (km) and dissociation rates (koff) were calculated using a simple one-to-one Langmuir binding model. The equilibrium dissociation constant (Kd) was calculated as the ratio koff/kₒₙ.

[10] = molecular target: T7, Full length human HtrA1 (HuHtrA1) …; test: phage competition ELISA: Fab-phage pre-incubated with serially diluted soluble HuHtrA1 (x axis), unbound phage captured on HuHtrA1-coated plate
Procedure: (§3) MAXISORP™ microtiter plates were coated with HuHtrA1 at 2 μg/ml in PBS for 2 hr at RT and then blocked with PBST buffer for another hour at RT. Purified phage from culture supernatants were incubated with serially diluted HuHtrA1 or MuHtrA1 in PBST buffer in a tissue-culture microtiter plate for an hour, after which 80 μl of the mixture was transferred to the HuHtrA1-coated wells for 15 minutes to capture unbound phage. The plate was washed with PBT buffer, and HRP-conjugated anti-M13 (Amersham Pharmacia Biotech) was added (1:5000 in PBST buffer) for one hour. The plate was washed with PBT buffer and developed by adding tetramethylbenzidine substrate (Kirkegaard and Perry Laboratories, Gaithersburg, Md.). The absorbance at 450 nm was plotted as a function of HuHtrA1 or MuHtrA1 concentration in solution to determine phage IC₅₀.

[11] = molecular target: T7, Full length human HtrA1 (HuHtrA1) …; test: SPR (BIAcore T100), single-cycle kinetics, biotinylated human HtrA1 captured on streptavidin, Fab in solution
Text: as §1, §2

[12] = molecular target: T7, Full length human HtrA1 (HuHtrA1) …; test: cell-based or functional assay; remark: listed apart in the source
[13] = molecular target: Protease domain of human HtrA1 (HuHtrA1_PD), residues D161-K379 (human, UniProt F1N152 168-386 (bovine entry)); test: cell-based or functional assay
Chain of Protease domain of human HtrA1 (HuHtrA1_PD), residues D161-K379 (F1N152 other isoform, or with tags, fused parts or gaps): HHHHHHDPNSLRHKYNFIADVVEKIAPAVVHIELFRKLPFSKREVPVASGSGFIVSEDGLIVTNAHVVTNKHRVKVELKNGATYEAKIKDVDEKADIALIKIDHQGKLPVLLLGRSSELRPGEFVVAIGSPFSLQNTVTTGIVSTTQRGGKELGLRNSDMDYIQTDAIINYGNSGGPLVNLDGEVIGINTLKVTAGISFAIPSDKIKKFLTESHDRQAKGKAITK

[14] = molecular target: T8, Full length murine HtrA1 (MuHtrA1) …; test: phage competition ELISA: Fab-phage pre-incubated with serially diluted soluble MuHtrA1 (x axis), unbound phage captured on HuHtrA1-coated plate
Procedure: as §3

- IC50, inhibition of H2-Opt hydrolysis (FRET assay, 1.0 nM HuHtrA1) [12]: 0.335 nM
- IC50, inhibition of H2-Opt hydrolysis (FRET assay, 1.5 nM HuHtrA1_PD) [13]: 0.229 nM
B3: YW505.94a.28 IgG (antibody, V domains shown)
VH: EVQLVESGGGLVQPGGSLRLSCAASGFSISGYYIHWVRQAPGKGLEWVGWIDPYGGDTNYADSVKGRFTISADTSKNTAYLQMNSLRAEDTAVYYCARGTFLTSWGHYFDYWGQGT
VL: DIQMTQSPSSLSASVGDRVTITCRASQSINTYLAWYQQKPGKAPKLLIYSASFLYSGVPSRFSGSGSGTDFTLTISSLQPEDFATYYCQQSDDTPPTFGQGTKVEIKR

- IC50 (read off the curve) [14]: ~2 nM
- Kd [9]: 1.6 nM
- koff [9]: 0.00455 s⁻¹
- kon [9]: 2.82e+06 M⁻¹ s⁻¹
- IC50 (read off the curve) [10]: ~0.5 nM
- Kd [11]: 2.6 nM
- koff [11]: 0.00784 s⁻¹
- kon [11]: 2.97e+06 M⁻¹ s⁻¹
B4: YW505.94a.54 Fab (Fab, V domains shown)
VH: B3 VH
VL: B3 VL with S28V, I29V, N30G, T31N, T94H

- Kd [9]: 4.6 nM
- koff [9]: 0.0093 s⁻¹
- kon [9]: 2.02e+06 M⁻¹ s⁻¹
- Kd [11]: 3.4 nM
- koff [11]: 0.00574 s⁻¹
- kon [11]: 1.69e+06 M⁻¹ s⁻¹
- IC50, inhibition of H2-Opt hydrolysis (FRET assay, 1.0 nM HuHtrA1) [12]: 1.95 nM
- IC50, inhibition of H2-Opt hydrolysis (FRET assay, 1.5 nM HuHtrA1_PD) [13]: 2.03 nM
B5: YW505.94a.28 Fab (Fab, V domains shown)
VH: B3 VH
VL: B3 VL

More lines, now with the values behind:

B1: IgG94 (anti-HtrA1 antibody YW505.94, IgG format) (antibody, V domains shown)
VH: B3 VH with S28N
VL: B3 VL with S28D, I29V, N30S, Y32A, L33V, D92Y, D93T
notes: The VH as printed ends at WGQGT; also called antibody 94; Ab94
- fold reduction in binding (alanine mutant) [1]: ≥ 5 fold
- fold reduction in binding (alanine mutant) [2]: ≥ 5 fold
- fold reduction in binding (alanine mutant) [3]: ≥ 5 fold
- fold reduction in binding (alanine mutant) [4]: ≥ 5 fold
- fold reduction in binding (alanine mutant) [5]: ≥ 5 fold
- fold reduction in binding (alanine mutant) [6]: ≥ 5 fold
- IC50, inhibition of BODIPY FL casein hydrolysis [7]: 8.3 nM
- IC50, inhibition of H2-Opt peptide hydrolysis (FRET assay) [7]: 1.8 nM
- fold increase in inhibitory potency of IgG94 vs. Fab94 [7]: ~16 fold
- IC50, inhibition of BODIPY FL casein hydrolysis [8]: 5.4 nM

B2: YW505.94a Fab (Fab, V domains shown)
VH: B3 VH
VL: B3 VL with S28D, I29V, N30S, Y32A, L33V, D92Y, D93T
notes: Tested as Fab
- Kd [9]: 58 nM
- koff [9]: 0.0856 s⁻¹
- kon [9]: 1.48e+06 M⁻¹ s⁻¹
- IC50 (read off the curve) [10]: ~6 nM
- Kd [11]: 55 nM
- koff [11]: 0.0448 s⁻¹
- kon [11]: 813000 M⁻¹ s⁻¹
